Measurements from the supplement of paper PMC10567573.

B1: C8orf76 (parent)
chain: KLAEAYLNLGPALSAALASSQKQH

Variants of: B1
Experiment: protein stability index of a GFP-peptide fusion (GPS, HEK-293T) (PSI 1-6); higher = more stable
Settings: c terminus: a fixed tail appended
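Also: lentivirally expressed fusions sorted by FACS into six bins by GFP to DsRed ratio, PSI derived from sequencing read proportions per bin multiplied by bin number.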

Protein stability index of substitutions, site by site:
N8: F 2.74, M 2.15, V 3.33, P 2.02, K 1.33, Q 1.73
P11: A 2.16, R 3.7, K 1.94, C 2.49, I 2.53
A12: Q 1.73, R 2.29, G 1.6, P 2.2, Y 2.82, V 3.4, H 2.14, S 2.35, E 1.96
L17: T 1.95, H 2.17, A 1.65, N 2.56
G10: N 2.08, H 1.96, F 2.51, P 2.58, Q 2.21, C 2.66, A 1.92
L9: I 3.05, G 2.68, S 1.96, T 2.62, N 2.89, A 4.3, Y 2.06, V 1.91
S14: F 4.03, A 1.47, E 1.23, K 1.3, V 4.08, G 2.12
Q21: D 1.97, A 4.28, F 2.97, N 3.31, L 1.8, S 2.38
Y6: H 2.3, D 3.94, K 3.18, I 2.39, W 2.08, E 3.65, S 3.04, Q 2.73
A3: P 2.48, Y 3.71, K 1.93, D 3.08, G 2.22, S 1.82, Q 1.72, I 2.07, T 1.52
A15: F 2.78, L 3.15, P 2.36, E 2.26, Q 2.98, N 1.81, V 2.31
E4: R 1.6, T 3.2, C 1.57, H 3.03, M 4.83, A 1.83
K1: Q 2.44, A 2.64, P 1.19, C 4.61, N 3.67, D 2.06, V 2.25
H24: F 3.48, W 1.9, K 1.76, Q 3.32, M 3.02
S20: R 2.13, L 3.21, I 4.43, M 2.44, W 3.33, Y 2.2, N 2.26, A 3.74
L7: F 2.53, M 1.53, Y 2.07, S 2.21, T 1.7, C 2.36, D 2.23, P 2.23
L2: I 2.6, A 2.15, C 2.03, H 2.66, R 2.38
A16: F 3.07, N 1.95, Y 2.95, I 4.08, S 2.41, L 3.68
S19: V 2.64, N 3, G 3.14, M 3.29, L 2.35, F 2.5, C 2.07, E 2.95, P 2.08
A18: N 1.19, G 2.29, S 1.99, R 2.67, C 1.6, L 3.18, Q 1.9
K22: G 3.43, W 4.77, A 2.91, D 1.69, C 3.44, T 4.43, M 2.41
L13: F 2.03, Q 2.76, C 2.77, Y 2.14, W 2.06, K 2.36, H 2.23, A 1.99
A5: T 2.93, E 2.96, H 2.04, L 4.98, S 1.24, M 3.68, D 2.44, P 2.76, W 1.58
Q23: K 2.07, D 1.97, A 3.15, R 2.04, M 2.85, N 1.99, E 3.74
